T1: Ptp10D-AP (Drosophila, UniProt P35992 43-1197)
T1 sequence (looked up): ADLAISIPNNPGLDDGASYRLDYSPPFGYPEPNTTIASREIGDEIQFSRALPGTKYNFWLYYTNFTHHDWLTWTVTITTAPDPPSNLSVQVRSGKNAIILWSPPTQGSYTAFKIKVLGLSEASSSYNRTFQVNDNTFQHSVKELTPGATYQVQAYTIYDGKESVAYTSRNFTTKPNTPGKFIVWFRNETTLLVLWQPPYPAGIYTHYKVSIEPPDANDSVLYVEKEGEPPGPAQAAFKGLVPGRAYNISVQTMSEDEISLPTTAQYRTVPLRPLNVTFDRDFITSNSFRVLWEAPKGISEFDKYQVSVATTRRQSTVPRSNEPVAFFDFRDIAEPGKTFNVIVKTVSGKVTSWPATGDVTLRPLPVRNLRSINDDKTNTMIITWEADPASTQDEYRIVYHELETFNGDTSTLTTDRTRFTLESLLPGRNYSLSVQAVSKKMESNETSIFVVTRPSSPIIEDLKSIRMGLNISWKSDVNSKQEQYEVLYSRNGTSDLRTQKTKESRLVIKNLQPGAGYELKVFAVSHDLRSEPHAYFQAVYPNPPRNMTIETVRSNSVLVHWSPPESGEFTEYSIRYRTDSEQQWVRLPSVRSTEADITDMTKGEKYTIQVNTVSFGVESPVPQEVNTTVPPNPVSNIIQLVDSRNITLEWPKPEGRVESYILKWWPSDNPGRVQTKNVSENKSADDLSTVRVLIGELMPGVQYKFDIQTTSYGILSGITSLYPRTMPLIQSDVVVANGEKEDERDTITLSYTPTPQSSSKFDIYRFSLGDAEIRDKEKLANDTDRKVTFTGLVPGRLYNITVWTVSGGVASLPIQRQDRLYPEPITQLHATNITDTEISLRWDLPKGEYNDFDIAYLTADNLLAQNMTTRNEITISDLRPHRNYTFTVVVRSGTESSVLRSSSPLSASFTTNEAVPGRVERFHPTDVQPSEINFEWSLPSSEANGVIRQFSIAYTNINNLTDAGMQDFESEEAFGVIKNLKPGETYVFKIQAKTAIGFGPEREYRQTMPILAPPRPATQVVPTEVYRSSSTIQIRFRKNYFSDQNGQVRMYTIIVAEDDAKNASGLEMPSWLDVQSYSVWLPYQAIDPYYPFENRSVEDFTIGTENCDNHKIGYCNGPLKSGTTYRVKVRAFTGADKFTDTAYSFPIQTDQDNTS


Key:
Dscam 7.13.25 isoform = assay: AlphaScreen or HTRF
Ptp10D-AP = target: T1, Ptp10D-AP; assay: AlphaScreen or HTRF

fold signal of homophilic binding over heterophilic binding of 7.13.25 to 7.8.25 (Dscam 7.13.25 isoform)	signal-to-background ratio (Sas-Fc::10D-AP vs. Sas-Fc::69D-AP or Sas-Fc::blank) (Ptp10D-AP)	Molecule
178 fold	–	Dscam 7.13.25 isoform (natural protein)
–	~6 fold	Sas-Fc (Fc fusion, Drosophila, UniProt Q04164 42-1635, looked up) APAGEDAAATTMPPLDTTTDAPDAVAATTTPATTAAEQSSSISSITTEAADGSTTSTTTTTEAANKSNATETDFTTNVPVASSLPEETSVRSTSIEPITSTEPTTTPRQETEGPDQHMVFSNTEPDQSHIQHIPLRDEHAESSGADDATTEMQRQREQDQQQNELNQISNEQDDVVKDLNNFRHPATLITASNSNSEENVEIESDKQVETTTTAVPAAATSTSTEATGTPPTGTPATSTSTVPNEREEDPYHVHILSENHDRLAEHEDYQMLSTSTEESSTTSTTSTTNSTTESGIVAGIVVSQENKATAEPSTATESTSISTSTTTAATAATSTTSRARAMHMNDPEDEAATTIMPDSESVPVINIVEGQHMLQQEDQKDEEEEGVVKESESSSTTEASTTTTEPSPFVAFAGEGRSAGGGNDIELFLHHNGSTHEQLMDLSDVSMDGDQNEGSSKTESSTTSTTTTTAQPETEMPKIVEITASGDTMQRECLANNKSYKHGELMERDCDERCTCNRGDWMCEPRCRGLSYPRGSQRSMANPNCLEKMVEEDECCRVMECSEPQLEPTVVATEGAAPSTNGTGESAVTLPTTDDEATPKPRTDCHYNSGVYKFRERLEIGCEQICHCAEGGVMDCRPRCPERNHTRLDKCVYVKDPKDVCCQLELCDVTLDDHEQQPTPLQSNNNEDPEEIDPFRFQEQARDAGGAKPTCTFKGAEYDVGQQFRDGCDQLCICNEQGIHCAKLECPSNFGLDVQDPHCIRWEPVPADFKPSPPNCCPESMRCVDNGTCSYQGVQIENWSPVPANLTGCDQHCYCENGRVECRAACPPVPALPPADLPCHPALARLLPIPDDECCKHWMCAPQIPKIGGAGQDEETEATSTHSSIPANETTTTTATANKSTSIPSKVPQIKKDEEKRPPASGAFYPTLDGKPPKSIGGLGIFEKPEKPEKAHKKVQHQQQQHQQQEQQEQQQHQNDVIFDGDRTEEQEEPLPPNGGFVPFQFGQQHPHQPHLGPYGFYNPVKPVYEDYNPYEPYDINPNGTPQGKPPPVPTSQSDLFNILGAEQPGHPVHPGHGGPPRIHPGQTQKDNHNLGPQVRIEQILQHLQQTVPGGPPPPPPHQQHQSLTPQLHPQQQQISQQHPGHYVPIVHSGVPPPPPGHGIAIVDGQTVAYESYPVIPGLGVPQHHPQQHQTTPQQHLQQTILPSSSTTSGLSTQASEHSLHQNQGKLAKQQQSGANNLQPDIEVHTLEAIDPRSIRIVFTVPQVYVNLHGRVELRYSNGPSNDTSTWEQQIFAPPEDLIATSQMEFDLPSLEPNSLYKVKITLILRDLNSQPTSSIYTVKTPPERTITPPPPFPDYRPDFQDIFKNVEDPELTVSETNASWLQLTWKKLGDDQMEYVDGVQLRYKELTGMIYSSTPLIHRTLTSYTIQNLQPDTGYEIGLYYIPLAGHGAELRAGHMIKVRTAQKVDVYGFDVTVNVTKVKTQSVEISWNGVPYPEDKFVHIYRAIYQSDAGKEDSSVFKVAKRDSTTGTLIMDLKPGTKYRLWLEMYLTNGNTKKSNVVNFITKPGGPATPGKTGKLLTAGTDQPVGDYYGPL

Reference: PMC3683152 (Neuron, 2013)
